Measured values taken from patent US20240066131A1 (Protagonist Therapeutics, Inc., priority 2020, published 2024).
Positions of bridges follow the written chain, without caps; N, C: chain ends. Non-standard residues stand in square brackets, D forms with d. Groups on a side chain read outwards from the residue. *: point of attachment. Dip = N[C@H](C(=O)O)C(c1ccccc1)c1ccccc1; Palmitoyl = CCCCCCCCCCCCCCCC(=O)*; β3hF = N[C@H](CC(=O)O)Cc1ccccc1; NMeK = CN[C@@H](CCCCN)C(=O)O; Isovaleryl = CC(C)CC(=O)*; Orn = NCCC[C@H](N)C(=O)O; Dab = NCC[C@H](N)C(=O)O; Dap = NC[C@H](N)C(=O)O; Ahx = NCCCCCC(=O)O

T1: ferroportin endogenously expressed on T47D cells (HTB 133, ATCC) (human, UniProt Q9NP59 1-571)
T1 sequence (looked up): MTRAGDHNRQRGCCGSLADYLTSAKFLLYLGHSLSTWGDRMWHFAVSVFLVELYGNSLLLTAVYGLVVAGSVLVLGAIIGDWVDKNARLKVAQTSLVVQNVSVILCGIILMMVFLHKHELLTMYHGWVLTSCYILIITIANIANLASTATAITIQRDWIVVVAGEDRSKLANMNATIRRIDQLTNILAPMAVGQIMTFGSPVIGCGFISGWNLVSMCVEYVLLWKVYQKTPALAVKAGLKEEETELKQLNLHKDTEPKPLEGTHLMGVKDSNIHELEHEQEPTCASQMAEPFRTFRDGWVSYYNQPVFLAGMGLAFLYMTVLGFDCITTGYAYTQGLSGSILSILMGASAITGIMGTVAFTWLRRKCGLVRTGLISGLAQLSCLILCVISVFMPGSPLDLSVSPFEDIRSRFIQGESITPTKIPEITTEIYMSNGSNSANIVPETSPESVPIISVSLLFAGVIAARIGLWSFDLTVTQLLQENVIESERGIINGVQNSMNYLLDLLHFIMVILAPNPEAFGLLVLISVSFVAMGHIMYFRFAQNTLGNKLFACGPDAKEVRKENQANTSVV

B1: Isovaleric Acid-K-T-H-[Dpa]-P-A-I-E-[bhPhe]-NMe[Lys(Ahx_Palm)]-NH2 (peptide)
peptide: Isovaleryl-KTH[Dip]PAIE[β3hF][NMeK]([Ahx-Palmitoyl])-NH2
modifications: lactam 1-8
SMILES: CCCCCCCCCCCCCCCC(=O)NCCCCCC(=O)NCCCC[C@@H](C(N)=O)N(C)C(=O)C[C@H](Cc1ccccc1)NC(=O)[C@@H]1CCC(=O)NCCCC[C@H](NC(=O)CC(C)C)C(=O)N[C@@H]([C@@H](C)O)C(=O)N[C@@H](Cc2c[nH]cn2)C(=O)N[C@@H](C(c2ccccc2)c2ccccc2)C(=O)N2CCC[C@H]2C(=O)N[C@@H](C)C(=O)N[C@@H]([C@@H](C)CC)C(=O)N1
B2: Isovaleric Acid-Dap-T-H-[Dpa]-P-A-I-D-[bhPhe]-[Lys(Ahx_Palm)]-R-NH2 (peptide)
peptide: Isovaleryl-[Dap]TH[Dip]PAID[β3hF]K([Ahx-Palmitoyl])R-NH2
modifications: lactam 1-8
SMILES: CCCCCCCCCCCCCCCC(=O)NCCCCCC(=O)NCCCC[C@H](NC(=O)C[C@H](Cc1ccccc1)NC(=O)[C@@H]1CC(=O)NC[C@H](NC(=O)CC(C)C)C(=O)N[C@@H]([C@@H](C)O)C(=O)N[C@@H](Cc2c[nH]cn2)C(=O)N[C@@H](C(c2ccccc2)c2ccccc2)C(=O)N2CCC[C@H]2C(=O)N[C@@H](C)C(=O)N[C@@H]([C@@H](C)CC)C(=O)N1)C(=O)N[C@@H](CCCNC(=N)N)C(N)=O
B3: Isovaleric Acid-K-T-H-[Dpa]-P-I-E-[bhPhe]-[Lys(Ahx_Palm)]-NH2 (peptide)
peptide: Isovaleryl-KTH[Dip]PIE[β3hF]K([Ahx-Palmitoyl])-NH2
modifications: lactam 1-7
SMILES: CCCCCCCCCCCCCCCC(=O)NCCCCCC(=O)NCCCC[C@H](NC(=O)C[C@H](Cc1ccccc1)NC(=O)[C@@H]1CCC(=O)NCCCC[C@H](NC(=O)CC(C)C)C(=O)N[C@@H]([C@@H](C)O)C(=O)N[C@@H](Cc2c[nH]cn2)C(=O)N[C@@H](C(c2ccccc2)c2ccccc2)C(=O)N2CCC[C@H]2C(=O)N[C@@H]([C@@H](C)CC)C(=O)N1)C(N)=O
B4: Isovaleric Acid-K-T-H-[Dpa]-P-A-I-D-[bhPhe]-[Lys(Ahx_Palm)]-R-NH2 (peptide)
peptide: Isovaleryl-KTH[Dip]PAID[β3hF]K([Ahx-Palmitoyl])R-NH2
modifications: lactam 1-8
SMILES: CCCCCCCCCCCCCCCC(=O)NCCCCCC(=O)NCCCC[C@H](NC(=O)C[C@H](Cc1ccccc1)NC(=O)[C@@H]1CC(=O)NCCCC[C@H](NC(=O)CC(C)C)C(=O)N[C@@H]([C@@H](C)O)C(=O)N[C@@H](Cc2c[nH]cn2)C(=O)N[C@@H](C(c2ccccc2)c2ccccc2)C(=O)N2CCC[C@H]2C(=O)N[C@@H](C)C(=O)N[C@@H]([C@@H](C)CC)C(=O)N1)C(=O)N[C@@H](CCCNC(=N)N)C(N)=O
B5: Isovaleric Acid-K-T-H-[Dpa]-P-A-I-E-[Lys(Ahx_Palm)]-NH2 (peptide)
peptide: Isovaleryl-KTH[Dip]PAIEK([Ahx-Palmitoyl])-NH2
modifications: lactam 1-8
SMILES: CCCCCCCCCCCCCCCC(=O)NCCCCCC(=O)NCCCC[C@H](NC(=O)[C@@H]1CCC(=O)NCCCC[C@H](NC(=O)CC(C)C)C(=O)N[C@@H]([C@@H](C)O)C(=O)N[C@@H](Cc2c[nH]cn2)C(=O)N[C@@H](C(c2ccccc2)c2ccccc2)C(=O)N2CCC[C@H]2C(=O)N[C@@H](C)C(=O)N[C@@H]([C@@H](C)CC)C(=O)N1)C(N)=O
B6: Isovaleric Acid-Dab-T-H-[Dpa]-P-A-I-D-[bhPhe]-[Lys(Ahx_Palm)]-R-NH2 (peptide)
peptide: Isovaleryl-[Dab]TH[Dip]PAID[β3hF]K([Ahx-Palmitoyl])R-NH2
modifications: lactam 1-8
SMILES: CCCCCCCCCCCCCCCC(=O)NCCCCCC(=O)NCCCC[C@H](NC(=O)C[C@H](Cc1ccccc1)NC(=O)[C@@H]1CC(=O)NCC[C@H](NC(=O)CC(C)C)C(=O)N[C@@H]([C@@H](C)O)C(=O)N[C@@H](Cc2c[nH]cn2)C(=O)N[C@@H](C(c2ccccc2)c2ccccc2)C(=O)N2CCC[C@H]2C(=O)N[C@@H](C)C(=O)N[C@@H]([C@@H](C)CC)C(=O)N1)C(=O)N[C@@H](CCCNC(=N)N)C(N)=O
B7: Isovaleric Acid-Dab-T-H-[Dpa]-P-A-I-E-[bhPhe]-[Lys(Ahx_Palm)]-R-NH2 (peptide)
peptide: XXTHXPAIEXXR
modifications: N-term Isovaleric Acid; Dab1; Dpa4; bhPhe9; Lys(Ahx_Palm)10; C-term NH2; cyclized Dab-E (lactam)
B8: Isovaleric Acid-Orn-T-H-[Dpa]-P-A-I-E-[bhPhe]-[Lys(Ahx_Palm)]-R-NH2 (peptide)
peptide: XXTHXPAIEXXR
modifications: N-term Isovaleric Acid; Orn1; Dpa4; bhPhe9; Lys(Ahx_Palm)10; C-term NH2; cyclized Orn-E (lactam)

Each binder was assayed against T1, ferroportin endogenously expressed on … (assay: cell-based or functional assay).

Row | T47D MSA IC50 [nM] | Binder
1 | 4.07 | B1
2 | 733 | B2
3 | 996 | B3
4 | 3.96 | B4
5 | 25.5 | Isovaleryl-ETH[Dip]PIK[β3hF]K([Ahx-Palmitoyl])-NH2 (lactam 1-7 (inferred)) [Isovaleric Acid-E-T-H-[Dpa]-P-I-K-[bhPhe]-[Lys(Ahx_Palm)]-NH2]
6 | 31.2 | B5
7 | 35 | Isovaleryl-[Orn]TH[Dip]PAID[β3hF][Lys(Ahx_Palm)]R-NH2 (lactam (positions not given here); not fully specified (bridges)) [Isovaleric Acid-Orn-T-H-[Dpa]-P-A-I-D-[bhPhe]-[Lys(Ahx_Palm)]-R-NH2]
8 | 131 | B6
9 | 5.53 | B7
10 | 144 | Isovaleryl-ETH[Dip]PKK([Ahx-Palmitoyl])-NH2 (lactam 1-6 (inferred)) [Isovaleric Acid-E-T-H-[Dpa]-P-K-[Lys(Ahx_Palm)]-NH2]
11 | 5.77 | B8
12 | 2.14 | Isovaleryl-ETH[Dip]PAIK[β3hF]K([Ahx-Palmitoyl])-NH2 (lactam 1-8) [Isovaleric Acid-E-T-H-[Dpa]-P-A-I-K-[bhPhe]-[Lys(Ahx_Palm)]-NH2]
13 | 10.6 | Isovaleryl-ETH[Dip]PAIKK([Ahx-Palmitoyl])-NH2 (lactam 1-8 (inferred)) [Isovaleric Acid-E-T-H-[Dpa]-P-A-I-K-[Lys(Ahx_Palm)]-NH2]
